In patent US20050032118A1, “Nitrophenyl derivatives that can be activated by light” (priority 1996, published 2005):

Experiment: Photolysis of nitrobenzyl-BSA conjugates with ultraviolet light (365 nm), residues counted by spectrophotometry
Conditions: for residues removed on irradiation with light: BSA as model protein, 8-15 residues bound, approximately 10 mins; for NBE residues cleaved from the protein / NBE residues cleaved: UV 10 min

| residues removed on irradiation with light | Molecule | NBE residues cleaved from the protein (3 NBE residues bound per protein molecule (50 mg sample)) [residues] | NBE residues cleaved (3.5 NBE residues per BSA molecule) [residues] | NBE residues cleaved (6.9 NBE residues per BSA molecule) [residues] | NBE residues cleaved (10.8 NBE residues per BSA molecule) [residues] | NBE residues cleaved (14.5 NBE residues per BSA molecule) [residues] | NBE residues cleaved from the protein (14.8 NBE residues bound per protein molecule (25 mg sample)) [residues] |
| --- | --- | --- | --- | --- | --- | --- | --- |
| about 95% | CC(O)Cc1ccccc1[N+](=O)[O-] (centres unmarked) [NBE, 1-(2-nitrobenzyl)ethanol] |  |  |  |  |  |  |
|  | NBE-BSA conjugates: bovine serum albumin randomly coated with NBE residues through nitrobenzyloxycarbonyl chloride | 3 | 2.5 | 6.0 | 10 | 14 | 14 |
| ~65% | O=[N+]([O-])c1ccccc1CO [NBA, 2-nitrobenzyl alcohol] |  |  |  |  |  |  |
